Assay results as given in paper PMC9241776, “Azole Resistance-Associated Regulatory Motifs within the Promoter of cyp51A in Aspergillus fumigatus”.

Target: T1, AtrR (Zn2Cys6 cluster and coiled-coil) (Aspergillus fumigatus, UniProt Q4WI89 50-160)
T1 sequence: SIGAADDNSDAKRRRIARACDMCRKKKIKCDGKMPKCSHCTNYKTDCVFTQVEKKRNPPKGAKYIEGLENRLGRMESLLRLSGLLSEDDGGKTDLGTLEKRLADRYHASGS
Assay: SPR; largely unaffected; SPR as in earlier publications; binding buffer and temperature not in the material (SEC buffer for AtrR and SrbA: 20 mM HEPES, 150 mM NaCl); 1:1 model with mass transport
Conditions: protein: recombinant; tags: N-terminal MBP, removed by TEV; chain copies: 2

B1: Pcyp51A SrbA* (dsDNA)
DNA 1: TCTAGAATTCCGAAGTCCGGATGTGTGCTGAGCCGAATGAA
DNA 2: TTCATTCGGCTCAGCACACATCCGGACTTCGGAATTCTAGA
- binding result: binds
